Source: patent publication US20180185504A1 (Regeneron, published 2018)
Read-outs that look alike come from different tables or passages of the source.

T1: human prolactin receptor (PRLR) on cells (human, UniProt P16471 25-622)
T1 sequence: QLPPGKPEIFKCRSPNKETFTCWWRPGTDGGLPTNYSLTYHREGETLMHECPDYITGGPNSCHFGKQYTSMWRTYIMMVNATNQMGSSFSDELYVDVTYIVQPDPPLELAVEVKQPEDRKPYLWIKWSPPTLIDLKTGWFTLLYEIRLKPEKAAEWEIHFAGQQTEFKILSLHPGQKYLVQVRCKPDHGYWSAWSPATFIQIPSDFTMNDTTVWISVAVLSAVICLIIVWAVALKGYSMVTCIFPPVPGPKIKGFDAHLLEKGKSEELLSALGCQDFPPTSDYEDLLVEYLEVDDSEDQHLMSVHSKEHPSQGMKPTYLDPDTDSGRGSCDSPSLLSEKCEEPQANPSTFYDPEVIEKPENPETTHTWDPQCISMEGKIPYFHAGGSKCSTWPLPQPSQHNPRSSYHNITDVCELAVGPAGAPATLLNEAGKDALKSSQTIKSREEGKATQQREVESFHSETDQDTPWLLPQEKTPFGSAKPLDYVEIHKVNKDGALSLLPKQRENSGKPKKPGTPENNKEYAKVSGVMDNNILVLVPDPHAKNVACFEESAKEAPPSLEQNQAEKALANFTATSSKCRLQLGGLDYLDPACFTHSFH

T2: mouse PRLR with an HA tag on HEK293 cells (mouse, UniProt Q08501 20-608)
T2 construct: whole, on cells; also called HEK293/mPRLR; rodent PRLR; not shown: HA tag
T2 sequence (looked up): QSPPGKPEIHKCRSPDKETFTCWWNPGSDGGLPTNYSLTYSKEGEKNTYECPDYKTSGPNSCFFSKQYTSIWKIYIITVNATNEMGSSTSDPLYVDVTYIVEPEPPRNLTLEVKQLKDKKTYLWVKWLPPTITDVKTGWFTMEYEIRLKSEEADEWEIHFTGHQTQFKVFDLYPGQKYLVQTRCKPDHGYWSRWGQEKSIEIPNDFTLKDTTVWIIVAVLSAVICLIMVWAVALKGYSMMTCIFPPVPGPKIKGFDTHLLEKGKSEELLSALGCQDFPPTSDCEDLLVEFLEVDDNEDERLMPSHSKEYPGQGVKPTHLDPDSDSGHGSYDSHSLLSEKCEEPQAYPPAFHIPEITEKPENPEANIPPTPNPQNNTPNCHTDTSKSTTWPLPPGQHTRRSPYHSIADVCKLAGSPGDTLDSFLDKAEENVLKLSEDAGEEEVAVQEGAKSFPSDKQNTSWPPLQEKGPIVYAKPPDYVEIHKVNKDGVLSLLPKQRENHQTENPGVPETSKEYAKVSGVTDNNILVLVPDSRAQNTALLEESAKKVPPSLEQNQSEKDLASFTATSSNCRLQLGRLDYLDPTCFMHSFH

T3: human prolactin receptor (PRLR) (human, UniProt P16471 25-622)
T3 sequence: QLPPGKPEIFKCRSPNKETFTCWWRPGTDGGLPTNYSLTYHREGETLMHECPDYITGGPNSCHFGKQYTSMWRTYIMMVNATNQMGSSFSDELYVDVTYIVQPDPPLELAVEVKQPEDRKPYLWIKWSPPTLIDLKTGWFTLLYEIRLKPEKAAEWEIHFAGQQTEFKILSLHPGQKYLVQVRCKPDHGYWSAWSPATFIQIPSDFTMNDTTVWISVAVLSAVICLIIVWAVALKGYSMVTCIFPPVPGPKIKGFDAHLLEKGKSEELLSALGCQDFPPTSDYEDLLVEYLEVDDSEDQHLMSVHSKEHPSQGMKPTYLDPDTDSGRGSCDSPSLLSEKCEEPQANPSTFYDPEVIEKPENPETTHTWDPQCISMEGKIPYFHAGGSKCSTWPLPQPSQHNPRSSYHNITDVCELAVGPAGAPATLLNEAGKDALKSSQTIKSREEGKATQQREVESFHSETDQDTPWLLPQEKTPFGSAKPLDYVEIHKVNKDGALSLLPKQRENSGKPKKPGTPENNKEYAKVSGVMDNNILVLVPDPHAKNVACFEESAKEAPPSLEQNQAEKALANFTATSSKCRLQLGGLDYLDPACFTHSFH


Key:
[1] = biological target: T1, human prolactin receptor (PRLR) on cells; test: cell-based or functional assay
[2] = biological target: T2, mouse PRLR with an HA tag on HEK293 …; test: FACS on HEK293/mPRLR cells
[3] = biological target: T3, human prolactin receptor (PRLR); test: cell-based or functional assay
[4] = biological target: T3, human prolactin receptor (PRLR); test: cell-based or functional assay; remark: listed apart in the source
[5] = biological target: T3, human prolactin receptor (PRLR); test: cell-based or functional assay; remark: listed apart in the source
[6] = biological target: T3, human prolactin receptor (PRLR); test: cell-based or functional assay; remark: listed apart in the source
[7] = biological target: T3, human prolactin receptor (PRLR); test: cell-based or functional assay; remark: listed apart in the source
[8] = biological target: T3, human prolactin receptor (PRLR); test: cell-based or functional assay; remark: listed apart in the source
[9] = biological target: T3, human prolactin receptor (PRLR); test: cell-based or functional assay; remark: listed apart in the source
[10] = biological target: T3, human prolactin receptor (PRLR); test: cell-based or functional assay; remark: listed apart in the source
[11] = biological target: T3, human prolactin receptor (PRLR); test: cell-based or functional assay; remark: listed apart in the source
[12] = biological target: T3, human prolactin receptor (PRLR); test: cell-based or functional assay; remark: listed apart in the source

Binder | % Kill, PC3/PRLR cells [3] | IC50, cell viability, PC3/PRLR cells [3] | % Kill, MCF7/PRLR cells [4] | % Kill, MCF7 cells [4] | % Kill, T47D cells [4] | IC50, cell viability, MCF7/PRLR cells [4] | IC50, cell viability, MCF7 cells [4] | IC50, cell viability, T47D cells [4] | % Kill, T47D cells [10] | IC50, cell viability, T47D cells [10] | % Kill, MCF7/ATCC cells [11] | % Kill, MCF7/PRLR cells [11] | IC50, cell viability, MCF7/ATCC cells [11] | IC50, cell viability, MCF7/PRLR cells [11] | further results
H1H6804P (antibody, human IgG1, V domains shown) VH: QVTLKESGPVLVKPTQTLSLTCTVSGFSLSDAGMGVSWIRQPPGKALEWLAHIFSNDGKSYSTSLKSRLTISKDTSKRQVVLTMTNMDPVDTATYYCARIRTGTYSLYLDYWGQGTLVTVSS VL: DIQMTQSPSSLSASVGDRVTITCRASQSINSYLNWYQQKPGKAPKLLLYFASSLQSGVPSRFSGSGSGTDFTLTISSLQPEDFASYYCQESYSTPWTFGQGTKVEIK |  |  |  |  |  |  |  |  |  |  |  |  |  |  | IC50, block of STAT5 reporter activation by 5 nM PRL in HEK293/hPRLR/STAT5-Luc cells [1]: 8 nM; binding result [2]: no binding
H1H6953N-DM1 (antibody, human IgG1, V domains shown, DM1 conjugated through SMCC linker; attachment residues not stated) VH: EVQLLESGGGLVQPGGTLRLSCAASGFTFSAYAMSWVRQAPGKGLEWVSSINVRAGDTYYADSVKGRFTISRDNSKNTLFLLMNSLRAEDTAAYYCAKARYSSNWGFDFWGQGTLVTVSS VL: DIVMTQSPDSLTVSLGARTTINCQSSQTILHSSNNHNYLAWYQQKPGLPPKLLIYWSSTRESGVPDRFSGSGSGTDFTLTISSLQAEDVAIYYCQQYSNTPYTFGQGTKLEIN | 67% | 0.86 nM | 76% | 55% | 79% | 0.29 nM | 100 nM | 1.64 nM | 100% | 1.5 nM | 70% | 80% | 90 nM | 0.3 nM | % Kill, 293/PRLR cells [3]: 95%; IC50, cell viability, 293/PRLR cells [3]: 0.28 nM; IC50, cell viability, 293/PRLR cells (PRLR 18X) [5]: 0.43 nM; IC50, cell viability, PC3/PRLR cells (PRLR 13X) [6]: 0.68 nM; IC50, cell viability, MCF7 cells (PRLR 3X) [7]: 82 nM; IC50, cell viability, T47D cells (PRLR 12X) [7]: 1.3 nM; IC50, cell viability, T47D/ErbB2 cells (PRLR 12X) [7]: 2.4 nM; IC50, cell viability, MCF7/PRLR cells (PRLR 55X) [8]: 0.33 nM; IC50, cell viability, MCF/PRLR + ErbB2 cells (PRLR 55X) [8]: 0.33 nM; IC50, cell viability, NCI-N87/PRLR cells (PRLR 6X) [8]: 2.9 nM; % Kill, MCF7/ATCC cells [9]: 70%; % Kill, MCF7/PRLR cells [9]: 80%; % Kill, PC3/hPRLR cells [9]: 83%; IC50, cell viability, MCF7/ATCC cells [9]: 80 nM; IC50, cell viability, MCF7/PRLR cells [9]: 0.1 nM; IC50, cell viability, PC3/hPRLR cells [9]: 0.4 nM
H1H6782P-DM1 (antibody, human IgG1, V domains shown, DM1 conjugated through SMCC linker; attachment residues not stated) VH: EVQLVESGGGLVQPGRSLRLSCAASGFTFDDYAMHWVRQAPGKGLEWVSGIIWNSGHIGYGDSVKGRFTISRDNAKKSLYLQMNSLRAEDTALYYCARDSGRYQSYFDYWGQGTLVTVSS VL: DIQMTQSPSTLSASVGDRVTITCRASHIISSWLAWYQQKPGKAPKVLIFKASSLESGVPSRFSGSGSGTEFTLTISSLQPDDFATYYCQQYNTYSRTFGQGTKVEIK | 64% | 0.92 nM | 85% | 57% | 74% | 0.65 nM | 120 nM | 4.19 nM | 100% | 3 nM | 70% | 80% | 250 nM | 0.3 nM | IC50, cell viability, T47D cells, + 15 nM PRL [12]: 2 nM; IC50, cell viability, T47D cells, without PRL [12]: 1 nM
